The text below walks through data of publication PMC10764278.

The target in the experiment is recombinant human tau(297–391) (human) (UniProt P10636). As to the kind of experiment: co-sedimentation; pelletable tau: whole assembly reaction centrifuged at 400,000g, 20 °C, 15 min, pellet and supernatant quantified by SDS-PAGE; 720 min (Fig. 2b, PHF reaction).

As to “recombinant human tau(297–391) (from UniProt P10636-8 297-391) (domain or fragment)”, the percent of tau pelletable is 80 to 90%.
